Experimental data reported in patent publication US20110245326, “Post-Transcriptional Regulation Of RNA-Related Processes Using Encoded Protein-Binding RNA Aptamers” (published 2011).
Positions count from the first letter of the chain named.

Columns and labels:
[1] = biological target: T1, Tetracycline repressor protein (TetR) (UniProt P04483 P04483:1-207); test: flow; 50 mM Tris pH 8.0, 50 mM KCl, 5 mM MgCl2, room temperature; repression 56% cell-free, 75% yeast; conditions: tags: N-terminal T7 tag, C-terminal His6 (pET24a); chain copies: 2 (inferred, TetR dimer); label: 3' fluorescein
T1 sequence (P04483 whole entry, one chain of several): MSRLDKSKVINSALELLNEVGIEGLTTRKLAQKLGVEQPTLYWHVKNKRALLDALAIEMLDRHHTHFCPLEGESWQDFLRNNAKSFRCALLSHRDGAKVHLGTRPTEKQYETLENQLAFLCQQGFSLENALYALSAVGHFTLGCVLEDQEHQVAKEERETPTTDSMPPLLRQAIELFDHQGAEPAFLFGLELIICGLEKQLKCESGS
Method: (§1) Quantitative affinity measurements of aptamer interactions with TetR were performed as described previously. Brodsky et al, “A microbead-based system for identifying and characterizing RNA-protein interactions by flow cytometry” Mol Cell Proteomics 1:922-929 (2002); and Warren et al, “A novel binding assay to assess specificity of monoclonal antibodies” J Immunol Methods 305:33-38 (2005). Dynabeads TALON® (Invitrogen) (1 μL) were washed with Affinity Binding Buffer (ABB) (BB+10 μg/mL BSA) and centrifuged at 250×g for 2 mins. Beads were resuspended in ABB and incubated with 60 μg of purified His₆-tagged TetR for 1 h at room temperature. TetR-coated beads were washed twice and resuspended in ABB. Beads were counted by microscopy, and 70,000 beads were placed per well in a 96-well microplate. Fluorescein-labeled RNA in ABB was added to the beads. […] The median fluorescence intensities of the samples were plotted against RNA or DNA concentration using GraphPad Prism® 5 (GraphPad Software, Inc.).
(§2) This example presents a data summary of the various constructs tested for TetR-aptamer binding, cell-free translation, and yeast in vivo expression experiments. Translational repression is reported as the luminescence intensity of the uninduced condition relative to the induced condition. The binding of RNA aptamers to TetR was measured by flow cytometry. […]

[2] = biological target: T1, Tetracycline repressor protein (TetR); test: flow; 50 mM Tris pH 8.0, 50 mM KCl, 5 mM MgCl2, room temperature; repression 91% cell-free, 81% yeast; conditions: tags: N-terminal T7 tag, C-terminal His6 (pET24a); chain copies: 2 (inferred, TetR dimer); label: 3' fluorescein; stem-loop
Method: as §1, §2

[3] = biological target: T1, Tetracycline repressor protein (TetR); test: flow; binding listed as NS; no translation repression; conditions: tags: N-terminal T7 tag, C-terminal His6 (pET24a); chain copies: 2 (inferred, TetR dimer); label: 3' fluorescein
Method: as §1, §2

[4] = biological target: T1, Tetracycline repressor protein (TetR); test: flow; 50 mM Tris pH 8.0, 50 mM KCl, 5 mM MgCl2, room temperature; no significant translation repression; conditions: tags: N-terminal T7 tag, C-terminal His6 (pET24a); chain copies: 2 (inferred, TetR dimer); label: 3' fluorescein
Method: as §1, §2

[5] = biological target: T1, Tetracycline repressor protein (TetR); test: flow; IRE does not bind TetR with high affinity; no translation repression; conditions: tags: N-terminal T7 tag, C-terminal His6 (pET24a); chain copies: 2 (inferred, TetR dimer); hairpin
Method: Quantitative affinity measurements of aptamer interactions with TetR were performed as described previously. Brodsky et al, “A microbead-based system for identifying and characterizing RNA-protein interactions by flow cytometry” Mol Cell Proteomics 1:922-929 (2002); and Warren et al, “A novel binding assay to assess specificity of monoclonal antibodies” J Immunol Methods 305:33-38 (2005). Dynabeads TALON® (Invitrogen) (1 μL) were washed with Affinity Binding Buffer (ABB) (BB+10 μg/mL BSA) and centrifuged at 250×g for 2 mins. Beads were resuspended in ABB and incubated with 60 μg of purified His₆-tagged TetR for 1 h at room temperature. TetR-coated beads were washed twice and resuspended in ABB. Beads were counted by microscopy, and 70,000 beads were placed per well in a 96-well microplate. Fluorescein-labeled RNA in ABB was added to the beads. Nonspecific RNA interactions were reduced by adding 10 μg/mL yeast tRNA. The binding reaction proceeded with moderate shaking for 4 h at room temperature. […] The median fluorescence intensities of the samples were plotted against RNA or DNA concentration using GraphPad Prism® 5 (GraphPad Software, Inc.).
Several aptamers, but not the iron-responsive element, bind TetR with high affinity. […] Reporter expression was measured in a rabbit reticulocyte cell-free system or in S. cerevisiae in the presence and absence of the inducer aTc.

[6] = biological target: T1, Tetracycline repressor protein (TetR); test: flow; 50 mM Tris pH 8.0, 50 mM KCl, 5 mM MgCl2, room temperature; repression NS cell-free, 9% yeast; conditions: tags: N-terminal T7 tag, C-terminal His6 (pET24a); chain copies: 2 (inferred, TetR dimer); label: 3' fluorescein
Method: as §1, §2

B1: 5-1.13 (ssRNA)
RNA: GGGAGCUCAGAAUAAACGCUCAACUCCUGUAGUGAAGGCAGAGAAAGGUCGAUACGGACGGAAUGUGAUGGCCUUCGACAUCAGGCCCGGAUCCGGC
[1]
  Kd: 0.37 nM

B2: 5-1.2 (ssRNA)
RNA: GGAUCCAGGCAGAGAAAGGUCGAUACGGACGGAAUGUGAUGGCCUGGAUCC
[2]
  Kd: 1.6 nM

B3: 5-1.2m2 (ssRNA)
RNA: B2 RNA with A13U, A15U
[3]
  binding result: no binding

B4: 5-29.13a (ssRNA)
RNA: GGGAGCUCAGAAUAAACGCUCAACUUGCUGCAGAGGGUCGAGAAUAUGUGUGACACUGCGUCGACGGGUUAAGUUCGACAUCAGGCCCGGAUCCGGC
[4]
  Kd: 2.77 nM

## CUUAAGCUUCAACAGUGCUUGAACUUAAG (ssRNA) [Iron Responsive Element (IRE)]
[5]
  binding result: no binding

B5: 5-18.13 (ssRNA)
RNA: GGGAGCUGAGAAUAAACGCUCAAUAGGGAGAGAACUGUGUCAGAAUGUAGUGAACCAGACACGGAGUGGAGUAUUCGACAUCAGGCCCGGAUCCGGC
[6]
  Kd: 0.45 nM

B6: 5-14.7b (ssRNA)
RNA: GGGAGCUGAGAAUAAACGCUCAACAGGAAACAGCAAGACAAACGAUGGGGAGCGUAAGACUGCGAGUGUCGGAUUCGACAUCAGGCCCGGAUCCGGC
[4]
  Kd: 1.44 nM
